Data on one molecule can be found in article doi:10.1101/2021.07.20.453048.

A word on the Kd: it is a measure of binding affinity in units of concentration. The low end stands for tighter binding, the high end for weaker binding.

The test addresses Taxol-stabilized microtubules polymerised from purified bovine brain tubulin (bovine) (UniProt Q6B856). In words: co-sedimentation.

B1: His-MBP-ENKD1 (maltose-binding protein fusion of full-length human Enkurin domain containing 1) (natural protein)
chain: MCEGPSRISGPIPPDPTLCPDNYRRPTSAQGRLEGNALKLDLLTSDRALDTTAPRGPCIGPGAGEILERGQRGVGDVLLQLEGISLGPGASLKRKDPKDHEKENLRRIREIQKRFREQERSREQGQPRPLKALWRSPKYDKVESRVKAQLQEPGPASGTESAHFLRAHSRCGPGLPPPHVSSPQPTPPGPEAKEPGLGVDFIRHNARAAKRAPRRHSCSLQVLAQVLEQQRQAQEHYNATQKGHVPHYLLERRDLWRREAEARKQSQPDPAMPPGHTRMPENQRLETLTKLLQSQSQLLRELVLLPAGADSLRAQSHRAELDRKLVQVEEAIKIFSRPKVFVKMDD
Molecule B1 registered a Kd of 160 nM.
